# Assay results taken from paper PMC3625992 (Structure (London, England : 1993), 2012).
# T1: helicase and C-terminal regulatory domains of human RIG-I (helicase-CTD; residues 230–925) (human, UniProt O95786 230-925)
# T1 sequence (looked up): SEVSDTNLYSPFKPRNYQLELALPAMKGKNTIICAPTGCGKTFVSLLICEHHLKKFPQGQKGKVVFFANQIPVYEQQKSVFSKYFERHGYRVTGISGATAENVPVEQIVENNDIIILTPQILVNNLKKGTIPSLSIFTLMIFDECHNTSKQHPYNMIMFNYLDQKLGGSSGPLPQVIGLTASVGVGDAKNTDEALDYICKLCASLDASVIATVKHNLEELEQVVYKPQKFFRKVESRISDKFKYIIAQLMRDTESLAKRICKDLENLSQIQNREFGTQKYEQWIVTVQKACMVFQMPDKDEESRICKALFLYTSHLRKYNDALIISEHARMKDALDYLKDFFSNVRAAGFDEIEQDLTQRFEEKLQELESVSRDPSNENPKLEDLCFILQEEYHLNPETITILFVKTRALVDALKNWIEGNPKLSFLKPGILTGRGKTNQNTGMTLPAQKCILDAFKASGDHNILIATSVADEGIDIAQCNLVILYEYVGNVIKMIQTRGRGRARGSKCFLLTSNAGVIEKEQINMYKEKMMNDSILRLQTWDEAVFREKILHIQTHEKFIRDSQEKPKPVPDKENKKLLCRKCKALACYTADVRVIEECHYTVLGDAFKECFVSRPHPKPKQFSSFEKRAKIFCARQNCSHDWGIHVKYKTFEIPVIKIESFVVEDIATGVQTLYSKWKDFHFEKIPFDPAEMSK
# Target: T1, helicase and C-terminal regulatory …
# Experiment: NMR titration
binder,measurement,value
"second CARD of human RIG-I (CARD2; residues 95–190) (domain or fragment, UniProt O95786 95-190, looked up) KKIEKLEEYRLLLKRLQPEFKTRIIPTDIISDLSECLINQECEEILQICSTKGMMAGAEKLVECLLRSDKENWPKTLKLALEKERNKFSELWIVEK",Kd,1660 ± 1300 nM
